Target: T1, endogenous full-length myocilin from conditioned media of primary human TM cells (Homo sapiens, UniProt Q99972)
T1 construct: myocilin, human, endogenous, secreted into the medium; called full-length (~55 kDa); also called endogenous full-length myocilin (~55 kDa)
Assay: immunoprecipitation; antibodies incubated with 15 mL conditioned medium of primary human TM cells without enrichment, or HBS buffer as control; myocilin found by Western blot
Conditions: one partner purified

T1 sequence (Q99972 33-504): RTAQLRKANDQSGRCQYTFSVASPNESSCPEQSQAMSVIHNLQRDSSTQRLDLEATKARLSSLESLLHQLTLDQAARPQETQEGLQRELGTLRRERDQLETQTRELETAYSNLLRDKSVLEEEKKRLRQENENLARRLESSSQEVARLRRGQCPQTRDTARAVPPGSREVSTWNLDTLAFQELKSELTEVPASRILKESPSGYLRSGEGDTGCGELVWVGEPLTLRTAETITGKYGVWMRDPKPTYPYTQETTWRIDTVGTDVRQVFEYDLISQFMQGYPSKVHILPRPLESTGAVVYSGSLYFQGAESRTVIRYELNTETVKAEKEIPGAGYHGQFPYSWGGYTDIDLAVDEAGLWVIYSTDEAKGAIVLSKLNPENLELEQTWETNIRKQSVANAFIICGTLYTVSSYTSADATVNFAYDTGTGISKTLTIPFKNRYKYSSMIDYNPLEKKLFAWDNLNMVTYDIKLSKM

B1: anti-OLF1 chimeric IgG (murine variable domains, human IgG1/kappa constant domains) (antibody, V domains shown)
VH: QVQLQQSGPELVKPGASVKISCKTSGYTFTENTMHWVRQSHGKSLEWIGGIHPNNIGSTYNQKFKGKATLTVDKSSSTAYMELRSLTSEDSAVYYCTRGATAPFAYWGQGTLVTVSA
VL: DIVMTQTPLSLPVSLGDQASISCRSSQSIVHSNGNTYLHWYQQKSGQSPKLLIYKVSNRFSGVPDRFSGSGSGTDFTLKISRVEAEDLGVYFCSQSTHVPPTFGGGTKLEIK
Q: Does B1 bind?
A: binds

Reference: publication PMC11670252, “Antibody-mediated clearance of an ER-resident aggregate that causes glaucoma” (PNAS Nexus, 2024)
